Source: the supplement of paper PMC12764529
± gives the half width of the 95% confidence interval.

Experiment: folding stability dG unfold from trypsin proteolysis; higher = more stable
Procedure, shortened: (§1)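 Only designs with AlphaFold2 dimer inter-PAE above 15 were retained; each was a mini-protein under 80 residues with no cysteine, in a PA-tagged cDNA display construct. After digestion with trypsin and chymotrypsin and sequencing, K50 was inferred by Bayesian fitting of counts, and unfolding free energy was derived per protease or combined against a sequence-predicted unfolded-state K50 and a shared folded-state K50.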

| Sequence | folding stability dG unfold [kcal/mol] |
| --- | --- |
| SAGGSAGGSAGGKKIHLFMPKEVAEKFAKELEKLGIDSKEVEIEFHEVDIPPSLPPELKSAGGSAGGSAGGS [r10_602_TrMRF] | -0.0238 ± 0.15 |
| SAGGSAGGEEEELTEEERRELERRRRRLEEERRRRRPPRPRLRLTLTVRLPDGSTVTLEVEIRLSAGGSAGG [r6_844_TrROS_Hall] | 2.2 ± 0.061 |
| SAGGSAGGSAGGKKKYIVVKVKVEVDENGNVTITLPNGKKITIPKEKVEVKPDGYLVIKLSAGGSAGGSAGG [r7_684_TrROS_Hall] | 1.98 ± 0.07 |
| KTKTIVINAKDLTEEQLRELLKKLGVSEEDVEVSEDGKTVVIKIDGVTIVIVASPPKPVVKPDDPEAKKAAS [r1_57_TrROS_Hall] | 1.27 ± 0.051 |
| SAGGSAGGLRVVKPEKVVEAIRKIRELVPKNYLVIVDSIEVREEGGKLYVDIPVLVLPVPPELLSAGGSAGG [r6_819_TrMRF] | 1.54 ± 0.027 |
| SAGGSAMIKTSYDPNGKTIYTIPETGAVITVDPSTGKVTVEVDPESQANNPLPEEEVKKLAEEVLKSAGGSA [r15_735_JUSTAS] | 0.481 ± 0.049 |
| SAEKPPVVTLEIEIEIVVKDENGKTHKRKFRLTVTFYPDGTVEISIYDENGELIETITLPPGATLEELLSAG [r14_559_TrROS_Hall] | 2.26 ± 0.083 |
| SAGGMFKGPDGNWKTYKTTKPGLTKSDIGPFVEELVEKFLKDHGLNPENVSAKAEYNPSTGTVNVYVGSAGG [r13_913_TrMRF] | 0.041 ± 0.039 |
| SAGGSAGGSAGDNYVMITHTIPFPPGEPLEIKIPPGAKIDDIDPERDPGNGTITVSIWFRSAGGSAGGSAGG [r11_701_TrROS] | 0.491 ± 0.24 |
| SAGGSAGGSAGMKIEKNKDGKLRIIIYNKNGKKVKEIEMSVEEAKKLAEKNNFEIVKIEPSAGGSAGGSAGG [r11_521_TrROS_Hall] | 1.02 ± 0.093 |
| SAGDAVRIPIRFPNGMQIYSIEINPDENTIKIKIYDPNGYRKFEWTFPVKDPNGDPKLVGKIKFYMRPPSAG [r5_434_TrROS] | 2.01 ± 0.069 |
| SAGGGGSTPVSSYSYPLPDGSTATITISSKNPDSDIYSFTVTLSDGTTVPLDVPLSESVEEAIARVLTSAGG [r13_470_JUSTAS] | 2.31 ± 0.086 |
| EEWYIIQIKIEYWGPNGKEREIDIMVLIPPEQMTPDQLKQVKEIAREIAENLQENGYNIEINVEIIPLDDMS [r1_221_TrROS] | 3.07 ± 0.26 |
| SAGGSAGGSAGGSMSTVFVSTLTLPDPSGLSTVLTTTVEIDPEGNAHPVTSTEEVSAAASAGGSAGGSAGGS [r4_80_JUSTAS] | 0.716 ± 0.022 |
| SAGGKIKIKSVEVQPNPDGMRKVTLEFQDGGKEHKVEIYVHPGGIMISIPNGKTRTIPWDDLDDIKLSAGGS [r16_593_TrROS] | 0.52 ± 0.093 |
| SAGGSAGGSAMPFRVKVPPGSRVLVTRYLPGGLEREEVELSEDEDELVVEAESGVVEVRVLDSAGGSAGGSA [r18_124_TrMRF] | 0.938 ± 0.07 |
| SAGGSAGGSAGMTITLPNGAEITSIEINEDGTITITVRVNGKTLTLTITVTLPPPPPEEPSAGGSAGGSAGG [r17_421_TrROS_Hall] | 3.67 ± 0.17 |
| SAGGSAGGSPVLIPVKTPEEIKKFLEKASSDAKFKVFNNKGEWKEVSKNEISVTPEEQFILVYSAGGSAGGS [r12_907_TrMRF] | 0.437 ± 0.048 |
| SAGGGSMEVVKEEVSEEVEVLPNGTVLTTKTITYKTPDGKEYTETVLERVDPVTGKREVIEKKTYPSSAGGS [r16_50_JUSTAS] | 1.59 ± 0.12 |
| SAGEKKIKIEIKEIKPHENGYLSIKAKAYLEDGKKVAEVYEPYPPNLSLEELIEKVIERLEKEVKEKGESAG [r5_697_TrMRF] | 0.445 ± 0.039 |
| SAGGKPAKPTRLDFPDDDVKTVPANTKIILTRPDGSKLVIELPEEEFTAKPDEWVFETPTSKITFPIASAGG [r13_643_TrMRF] | 0.767 ± 0.092 |

| Sequence | folding stability dG unfold [kcal/mol] |
| --- | --- |
| SAGGEYTVVSVLEERKDPATGKTVTLELLKDPNSNVLYRRVTTTDPANPDVVTTTLYDAAGNKVSTVSSAGG [r13_658_JUSTAS] | 2.17 ± 0.046 |
| SAGGSAGGMVTVPVPKDKPLNPVATVKLPDGSTIPAGPVAVDLEKGTATLEVPEPAEVIVEVNPSAGGSAGG [r6_180_JUSTAS] | 0.0542 ± 0.08 |
| SAGGSAGGSAGMKVTVTITYPGGKVTTLDGDPEEVKAALPSSLTDVKITVTDPATGKVAASAGGSAGGSAGG [r11_353_JUSTAS] | -0.213 ± 0.06 |
| SAGGSAGGSAGGVPRLERFTLSPNGLPVRIFVDGDRALVVFEGPDGGLAVATFAVSDIPFSAGGSAGGSAGG [r7_653_TrMRF] | 0.857 ± 0.03 |
| SAGGMVTIELREVSEEEALKLAEELPPNTLLIPFPFGNLVLPVRVPDDPEVREKVAEEIRKFLEALPSAGGS [r16_311_TrMRF] | 1.13 ± 0.023 |
| SAGNIMVQVEPDPGGTVKVEIMFMIPLPNGWPIMIQIEWEVRVDEDGEPELKMPIEIFFSEEALDKGFSAGG [r19_63_TrROS] | 2.06 ± 0.11 |
| SAMMYLIRVTITVKNKETGEEKEIEVEILIEKEEGELTEEEIEELARKLAEELGLEVEEIKIEIEPLPESAG [r14_278_TrROS_Hall] | 4.34 ± 0.2 |
| SMKITTDPVNKTISATFPPGTDPLAETQKIVDEVKKKENSGDITITFSTGNTTINYTLGTNTVTTTPAGTSA [r9_224_JUSTAS] | -0.0577 ± 0.063 |
| SAGGSAGGSPVVAIRAKSREELLAALEALLPPGQKLTPEQRQQLVDTLLANLDVKPGDTILVRSAGGSAGGS [r12_983_TrROS_Hall] | 1.07 ± 0.064 |
| SAGGSAGGSAGGPEVERFRIPGDNVLVEVVRLEDERIARITFPDGSQLTVPLPPGWEAFSAGGSAGGSAGGS [r10_976_TrMRF] | 0.853 ± 0.031 |
| SAGGSAGGSAGGVDPTPDGILRVRVVIKDPNGDVFSEKEVEMTPEELEALKKAGYVILESAGGSAGGSAGGS [r10_749_JUSTAS] | 1.43 ± 0.033 |
| SAGGSAGGSLLEDIKKALEIIKPPPIPVKVKVKIEYDPEKGELKVEVEFFGIKLKVEGEFKIESAGGSAGGS [r20_230_TrMRF] | 2.07 ± 0.22 |
| SAGGSAGGSFKDVPPGLKPLREEENVLFYQLPDGSYLVLVKEGDKIKKIKASKSTSIEEAIKKSAGGSAGGS [r12_605_JUSTAS] | 0.44 ± 0.11 |
| SAGGSPLVLTSEVEKKFENSPDKTVEKYKIKVTVYDPKTGKKLKEIELEKTVEKGGNEKIEEPIILSAGGSA [r2_271_JUSTAS] | 0.146 ± 0.084 |
| SAGGSAGPALEIAKALTELYGAEEVTILDVHPDGYVHLHVRAVDYDDGEPVERELDVIFPIAPDDGSAGGSA [r15_646_TrMRF] | 0.164 ± 0.06 |
| SAGGKVKVVEIRYFPGTNTVEILVEDPGPYLATIRIPAAPDAPIEIDEDANFRVPDAPVVLGEVRPPSAGGS [r16_515_TrMRF] | 1.19 ± 0.027 |
| SAGGSAGGSAGGSSSSASVEVKTETSVSYDPSTGRTYTTTTSKYPLTNTTVTTTTTDPTSAGGSAGGSAGGS [r10_187_JUSTAS] | 0.955 ± 0.03 |
| SMKIEVSGGNVTVEMYMWRRKKERDPDDPGKERDQPEPMPQTHTIDPNDPEAAKKFLDKFPPGFRPEIHDSA [r9_476_TrROS] | 0.594 ± 0.19 |
| SAGGSAGGSAKLEYDDDYVEIEFKVPDGPIMIYIPDWGWMIWIWPGKEVTIRFPIPKPPDNSAGGSAGGSAG [r3_185_TrROS] | 2.41 ± 0.089 |
| SIWFSPGKKYKIDEIRFGGWEIEKFTAQVGPDGNIQIPMDIKPVKKPPPPPPVVRNPEDGKYYDPGDPKDSA [r9_603_TrROS] | -0.127 ± 0.39 |
| SAGGSAGGDPNDKPMKFELIETFTIPGNLNEAKDFLEDLLPPNWAINVEQEPGMITITIYKMKDSAGGSAGG [r6_953_TrROS] | 1.78 ± 0.17 |

Experiment: folding stability dG unfold (combined trypsin and chymotrypsin); higher = more stable
Procedure, shortened: as §1

| Sequence | folding stability dG unfold [kcal/mol] |
| --- | --- |
| SAGGSAGGSAGGKKIHLFMPKEVAEKFAKELEKLGIDSKEVEIEFHEVDIPPSLPPELKSAGGSAGGSAGGS [r10_602_TrMRF] | -0.0833 ± 0.27 |
| SAGGSAGGEEEELTEEERRELERRRRRLEEERRRRRPPRPRLRLTLTVRLPDGSTVTLEVEIRLSAGGSAGG [r6_844_TrROS_Hall] | 3.16 ± 0.14 |
| SAGGSAGGSAGGKKKYIVVKVKVEVDENGNVTITLPNGKKITIPKEKVEVKPDGYLVIKLSAGGSAGGSAGG [r7_684_TrROS_Hall] | 2.05 ± 0.087 |
| KTKTIVINAKDLTEEQLRELLKKLGVSEEDVEVSEDGKTVVIKIDGVTIVIVASPPKPVVKPDDPEAKKAAS [r1_57_TrROS_Hall] | 1.61 ± 0.12 |
| SAGGSAGGLRVVKPEKVVEAIRKIRELVPKNYLVIVDSIEVREEGGKLYVDIPVLVLPVPPELLSAGGSAGG [r6_819_TrMRF] | 1.65 ± 0.16 |
| SAGGSAMIKTSYDPNGKTIYTIPETGAVITVDPSTGKVTVEVDPESQANNPLPEEEVKKLAEEVLKSAGGSA [r15_735_JUSTAS] | 1.1 ± 0.043 |
| SAEKPPVVTLEIEIEIVVKDENGKTHKRKFRLTVTFYPDGTVEISIYDENGELIETITLPPGATLEELLSAG [r14_559_TrROS_Hall] | 3.61 ± 0.11 |
| SAGGMFKGPDGNWKTYKTTKPGLTKSDIGPFVEELVEKFLKDHGLNPENVSAKAEYNPSTGTVNVYVGSAGG [r13_913_TrMRF] | 0.576 ± 0.08 |
| SAGGSAGGSAGDNYVMITHTIPFPPGEPLEIKIPPGAKIDDIDPERDPGNGTITVSIWFRSAGGSAGGSAGG [r11_701_TrROS] | 0.73 ± 0.25 |
| SAGGSAGGSAGMKIEKNKDGKLRIIIYNKNGKKVKEIEMSVEEAKKLAEKNNFEIVKIEPSAGGSAGGSAGG [r11_521_TrROS_Hall] | 1.09 ± 0.21 |
| SAGDAVRIPIRFPNGMQIYSIEINPDENTIKIKIYDPNGYRKFEWTFPVKDPNGDPKLVGKIKFYMRPPSAG [r5_434_TrROS] | 2.31 ± 0.23 |
| SAGGGGSTPVSSYSYPLPDGSTATITISSKNPDSDIYSFTVTLSDGTTVPLDVPLSESVEEAIARVLTSAGG [r13_470_JUSTAS] | 2.27 ± 0.092 |
| EEWYIIQIKIEYWGPNGKEREIDIMVLIPPEQMTPDQLKQVKEIAREIAENLQENGYNIEINVEIIPLDDMS [r1_221_TrROS] | > 6 |
| SAGGSAGGSAGGSMSTVFVSTLTLPDPSGLSTVLTTTVEIDPEGNAHPVTSTEEVSAAASAGGSAGGSAGGS [r4_80_JUSTAS] | 0.652 ± 0.079 |
| SAGGKIKIKSVEVQPNPDGMRKVTLEFQDGGKEHKVEIYVHPGGIMISIPNGKTRTIPWDDLDDIKLSAGGS [r16_593_TrROS] | 1.01 ± 0.18 |
| SAGGSAGGSAMPFRVKVPPGSRVLVTRYLPGGLEREEVELSEDEDELVVEAESGVVEVRVLDSAGGSAGGSA [r18_124_TrMRF] | 0.977 ± 0.21 |
| SAGGSAGGSAGMTITLPNGAEITSIEINEDGTITITVRVNGKTLTLTITVTLPPPPPEEPSAGGSAGGSAGG [r17_421_TrROS_Hall] | 3.69 ± 0.18 |
| SAGGSAGGSPVLIPVKTPEEIKKFLEKASSDAKFKVFNNKGEWKEVSKNEISVTPEEQFILVYSAGGSAGGS [r12_907_TrMRF] | 0.578 ± 0.068 |
| SAGGGSMEVVKEEVSEEVEVLPNGTVLTTKTITYKTPDGKEYTETVLERVDPVTGKREVIEKKTYPSSAGGS [r16_50_JUSTAS] | 2.4 ± 0.1 |
| SAGEKKIKIEIKEIKPHENGYLSIKAKAYLEDGKKVAEVYEPYPPNLSLEELIEKVIERLEKEVKEKGESAG [r5_697_TrMRF] | 0.22 ± 0.21 |
| SAGGKPAKPTRLDFPDDDVKTVPANTKIILTRPDGSKLVIELPEEEFTAKPDEWVFETPTSKITFPIASAGG [r13_643_TrMRF] | 0.725 ± 0.21 |
